Experimental data as given in publication PMC4106346, “The Oligomeric States of the Purified Sigma-1 Receptor Are Stabilized by Ligands” (The Journal of Biological Chemistry, 2014).

Target: GpA G83I
Test: TOXCAT
Details: parent: est. 100; read off a plot

With “glycophorin A transmembrane control of the TOXCAT assay G83I” the response was 6.3 %GpA.
